This passage reports Km results from paper PMC12123462, “Novel Click Coupling Chemistry to Explore Glycan Recognition” (ACS Central Science, 2025).

Substrate in this data set: CC(=O)N[C@H]1[C@H]([C@H](O)[C@H](O)CO)O[C@](OP(=O)(O)OC[C@H]2O[C@@H](n3ccc(N)nc3=O)[C@H](O)[C@@H]2O)(C(=O)O)C[C@@H]1O
As to the kind of experiment: neoglycoprotein ELISA, product detected with APDye-532 SNA. The class given is biochemical, Homo sapiens. To be noted: acceptor BSA-LNnT immobilised (250 ng/well), MES pH 6.5, 37 °C, 2 h. From the text:
neoglycoprotein ELISA, product detected with APDye-532 SNA on recombinant human ST6Gal1 | K m of CMP-Sia for the recombinant human ST6Gal1
On the technique in general: In an ELISA, binding on a coated surface is turned into a signal by an enzyme label.

B1: recombinant human ST6Gal1 (Homo sapiens) (protein)
chain: KEKKKGSYYDSFKLQTKEFQVLKSLGKLAMGSDSQSVSSSSTQDPHRGRQTLGSLRGLAKAKPEASFQVWNKDSSSKNLIPRLQKIWKNYLSMNKYKVSYKGPGPGIKFSAEALRCHLRDHVNVSMVEVTDFPFNTSEWEGYLPKESIRTKAGPWGRCAVVSSAGSLKSSQLGREIDDHDAVLRFNGAPTANFQQDVGTKTTIRLMNSQLVTTEKRFLKDSLYNEGILIVWDPSVYHSDIPKWYQNPDYNFFNNYKTYRKLHPNQPFYILKPQMPWELWDILQEISPEEIQPNPPSSGMLGIIIMMTLCDQVDIYEFLPSKRKTDVCYYYQKFFDSACTMGAYHPLLYEKNLVKHLNQGTDEDIYLLGKATLPGFRTIHC
notes: recombinant
Broadly, the Km is the substrate concentration at which the rate is half of its maximum. Take B1: the Km came to 141.4 µM.
